Results published in patent publication US20210230266A1 (SINGAPORE HEALTH SERVICES PTE, published 2021).

T1: Human IL-11 (human, UniProt P20809 22-199)
T1 construct: Recombinant human IL-11 (GenScript Cat. No. Z03108-1) or IL-11 secreted by human cells; the mature form is said to have 178 residues; also called recombinant human IL-11; endogenously produced IL-11
T1 sequence: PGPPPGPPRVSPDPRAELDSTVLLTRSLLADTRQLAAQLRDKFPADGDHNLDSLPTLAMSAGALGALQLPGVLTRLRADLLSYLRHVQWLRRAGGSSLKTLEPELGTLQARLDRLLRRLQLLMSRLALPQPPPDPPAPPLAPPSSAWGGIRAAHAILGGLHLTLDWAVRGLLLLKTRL

T2: Mouse IL-11 (mouse, UniProt P47873 22-199, limits assumed)
T2 construct: also called murine IL-11; recombinant murine IL-11
T2 sequence (looked up): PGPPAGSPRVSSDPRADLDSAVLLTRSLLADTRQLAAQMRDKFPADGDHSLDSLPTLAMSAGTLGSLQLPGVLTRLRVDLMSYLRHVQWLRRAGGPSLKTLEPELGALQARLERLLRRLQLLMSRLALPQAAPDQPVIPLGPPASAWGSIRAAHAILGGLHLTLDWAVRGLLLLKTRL

B1: YU100-B03 (antibody)
chain: QVQLVQSGGGVVQPGRSLRLSCAASGFTFSSYGMHWVRQAPGKGLEWVAVISYDGSNKYYADSVKGRFTISRDNSKNTLYLQMNSLRAEDTAVYYCAKIGATDPLDYWGQGTLVTVSSGSASAPKLEEGEFSEARVQSVLTQPRSVSGSPGRSVTISCTGTSSDVGGYNYVSWYQQHPGKAPKLTLYDVVKRPSGVPDRYSGSKSGNTASLTISGLQAEDEADYYCCSYAGGYTWVFGGGTKVTVV
B2: YU100-E04 (antibody)
chain: QVQLQQSGGGVVQPGRSLRLSCAASGFTFSSYGMHWVRQAPGKGLEWVAVISYDGSNKYYADSVKGRFTISRDNSKNTLYLQMNSLRAEDTAVYYCAKIGATDPLDYWGQGTLVTVSSGSASAPKLEEGEFSEARVQSALTQPRSVSGSPGQSVTISCTGTSSDVGGYNYVSWYQQHPGKTPKLMIYDVTKRPSGVPDHFSGSKSGNTASLTISGLQAEDEADYYCCSYAGSHIWVFGGGTKLTVLGQPKAAPSVTLFPPSS
B3: YU100-D05 (antibody)
chain: QVQLQQSGGGVVQPGRSLRLSCAASGFTFSSYGMHWVRQAPGKGLEWVAVISYDGSNKYYADSVKGRFTISRDNSKNTLYLQMNSLRAEDTAVYYCAKIGATDPLDYWGQGTLVTVSSGSASAPKLEEGEFSEARVQSALTQPASVSGSPGQLITISCTGTNSDVGGYNYVSWYQQHPGKAPKLMIYDVSNRPSGVSNRFSGSKSGNTASLTISGLQAEDEADYYCCSYAGSYTWVFGGGTKLTVLGQPKAAPSVTLFPPSS
B4: YU100-E06 (antibody)
chain: QVQLVESGGGVVQPGRSLRLSCAASGFTFSSYGMHWVRQAPGKGLEWVAVISYDGSNKYYADSVKGRFTISRDNSKNTLYLQMNSLRAEDTAVYYCAKIGATDPLDYWGQGTLVTVSSGSASAPKLEEGEFSEARVQSALTQPASVSGFPEQSITISCTGTSSDVGGYDYVSWYQQHPGKAPKLMIYDVTNRPSGVSNRFSGSKSGNTASLTISGLQPEDEADYYCSSYTSNTTWVFGGGTKLTVLRQPKAAPSVTLFPPSS
B5: YU100-D02 (antibody)
chain: QVRLVQSGGGVVQPGRSLRLSCAASGFTFSSYGMHWVRQAPGKGLEWVAVISYDGSNKYYADSVKGRFTISRDNSKNTLYLQMNSLRAEDTAVYYCAKIGATDPLDYWGQGTLVTVSSGSASAPKLEEGEFSEARVQSALTQPRSVSGSPGQSVTISCTGTSGDVGTYNYVSWYQQHPGKAPKLMIFDVSKRPSGVPDRFSGSKSGNTASLTISGLQAEDEADYYCNSYAGSYTWVFGGGTKLTVLGQPKAAPSVTLFPPSS
B6: YU100-E05 (antibody)
chain: EVQLVQSGGGVVQPGRSLRLSCAASGFTFSSYGMHWVRQAPGKGLEWVAVISYDGSNKYYADSVKGRFTISRDNSKNTLYLQMNSLRAEDTAVYYCAKIGATDPLDYWGQGTLVTVSSGSASAPKLEEGEFSEARVQAVLTQPRSVSGSPGQSVTISCTGTSSDVGGYNYVSWYQQHPGKAPKLMIYDVSKRPSGVPDRFSGSKSGNTASLTISGLQAEDEADYYCCSYAGSYSWVFGGGTKLTVLGQPKAAPSVTLFPPSS
B7: YU100-D11 (antibody)
chain: QVQLVQSGGGVVQPGRSLRLSCAASGFTFSSYGMHWVRQAPGKGLEWVAVISYDGSNKYYADSVKGRFTISRDNSKNTLYLQMNSLRAEDTAVYYCAKIGATDPLDYWGQGTLVTVSSGSASAPKLEEGEFSEARVQSALTQPRSVSGSPGQSVTISCTGTSSNVGGYNYVSWYQQHPGKAPKLMIYDVSKRPSGVPDRFSGSKSGNTASLTISGLQAEDEANYYCASYAGNYNWVFGGGTKLTVLGQPKAAPSVTLFPPSS
B8: YU100-B01 (antibody)
chain: QVQLVQSGGGVVQPGRSLRLSCAASGFTFSSYGMHWVRQAPGKGLEWVAVISYDGSNKYYADSVKGRFTISRDNSKNTLYLQMNSLRAEDTAVYYCAKIGATDPLDYWGQGTLVTVSSGSASAPKLEEGEFSEARVQSALTQPRSVSGSPGQSVTISCTGTNTDVGAYNYVSWYQQYPGKAPKLIIYDVSKRPSGVPDRFSGSKSGNTASLTISGLQAEDEADYYCCSYAGSYSWVFGGGTKLTVL
B9: YU100-B07 (antibody)
chain: QVQLVESGGGVVQPGRSLRLSCAASGFTFSSYGMHWVRQAPGKGLEWVAVISYDGSNKYYADSVKGRFTISRDNSKNTLYLQMNSLRAEDTAVYYCAKIGATDPLDYWGQGTLVTVSSGSASAPKLEEGEFSEARVQSALTQPRSVSGSPGQSVTMSCTGTSRDVGGYNYVSWYQHHPGKAPKLMIYDVSKRPSGVPDRFSGSKSGNTASLTISELQAEDEADYYCCSYAGSYTWVFGGGTKLTVL
B10: YU100-B08 (antibody)
chain: EVQLVQSGGGVVQPGRSLRLSCAASGFTFSSYGMHWVRQAPGKGLEWVAVISYDGSNKYYADSVKGRFTISRDNSKNTLYLQMNSLRAEDTAVYYCAKIGATDPLDYWGQGTLVTVSSGSASAPKLEEGEFSEARVQSALTQPASVSGSPGQSITISCTGTSSDVGGYNYVSWYQQHPGKVPRLLIYDVSNRPSGVSTRFSGSKSGNTASLTISGLQGEDEAEYYCSSFTSSTTWVFGGGTKLTVL
B11: YU100-E01 (antibody)
chain: QVQLQQSGGGVVQPGRSLRLSCAASGFTFSSYGMHWVRQAPGKGLEWVAVISYDGSNKYYADSVKGRFTISRDNSKNTLYLQMNSLRAEDTAVYYCAKIGATDPLDYWGQGTLVTVSSGSASAPKLEEGEFSEARVQSALTQPASVSGSPGQSITISCTGTSNDIGAYNYVSWYQQHPGKAPKLLIYDVNNRPSGVSDRFSGSKSGNTASLTISGLQAEDEADYYCCSYAGSYSWVFGGGTKLTVLGQPKANPTVTLFPPSS
B12: YU100-B06 (antibody)
chain: QVQLVESGGGVVQPGRSLRLSCAASGFTFSSYGMHWVRQAPGKGLEWVAVISYDGSNKYYADSVKSRFTISRDNSKNTLYLQMNSLRAEDTAVYYCAKIGATDPLDYWGQGTLVTVSSGSASAPKLEEGEFSEARVQSALTQPASVSGSPGQSITISCTGTSSDVGGYNYVSWYQQHPGKAPKLMIYDVSKRPSGVPDRFSGSKSGNTASLTISGLQAEDEADYYCNSYAGSYTWVFGGGTKLTVL

Columns and labels:
[1] = target: T1, Human IL-11; experiment: ELISA
Experimental: (§1) The soluble scFv were produced by recombinant expression in E. coli, and analysed for their ability to bind to human IL-11 and murine IL-11 by ELISA. Briefly, the respective antigen was coated to wells of an ELISA plate, the cell culture supernatant containing the respective scFv was added at a 1:2 dilution, and binding was detected.

[2] = target: T2, Mouse IL-11; experiment: ELISA
Experimental: as §1

[3] = target: T1, Human IL-11; experiment: ELISA on coated recombinant human IL-11 (100 ng/well), scFv-Fc
Experimental: The light chain shuffled anti-IL-11 antibodies were analysed to determine the EC50 for binding to human IL-11 by ELISA according to standard methods. Briefly, wells of microtiter plates were coated with recombinant human IL-11 (100 ng/well), scFv-Fc comprising the VH and VL domains of the clones were added in a dilution series and antibody binding was detected using a polyclonal antibody detection system.

[4] = target: T1, Human IL-11; experiment: cell-based or functional assay

| Binder | hIL11 - average signal [1] | mIL11 - average signal [2] | EC50 [3] | MMP2 production, Experiment 1 (human atrial fibroblasts + TGFB1) [4] | MMP2 production, Experiment 2 (human atrial fibroblasts + TGFB1) [4] |
| --- | --- | --- | --- | --- | --- |
| B1 | 0.227 | 0.321 | 0.025 µg/mL | 47.3 ng/mL | 46.8 ng/mL |
| B2 | 0.36 | 0.472 | 0.036 µg/mL | 50 ng/mL | 43.5 ng/mL |
| B3 | 0.223 | 0.284 | 0.042 µg/mL | 53.3 ng/mL | 48.8 ng/mL |
| B4 | 0.173 | 0.309 | 0.024 µg/mL | 54.1 ng/mL | 48.2 ng/mL |
| B5 | 0.268 | 0.346 | 0.022 µg/mL | 49.6 ng/mL | 42.2 ng/mL |
| B6 | 0.16 | 0.275 | 0.027 µg/mL | 56.3 ng/mL | 50.2 ng/mL |
| B7 | 0.447 | 0.475 | 0.038 µg/mL | 51.2 ng/mL | 47.2 ng/mL |
| B8 | 0.187 | 0.175 | 0.023 µg/mL | 52.5 ng/mL | 40 ng/mL |
| B9 | 0.167 | 0.354 | 0.023 µg/mL | 55.9 ng/mL | 47.4 ng/mL |
| B10 | 0.209 | 0.423 | 0.021 µg/mL | 55.3 ng/mL | 40.6 ng/mL |
| B11 | 0.207 | 0.238 | 0.03 µg/mL | 59.3 ng/mL | 51.8 ng/mL |
| B12 | 0.209 | 0.404 | 0.033 µg/mL | 47.6 ng/mL | 49.6 ng/mL |
